For the assay, the target named is gp41 (Q567K/A582T/A532V/I535M/L543Q/K574R/S752F/I756F) of the HIV-1AD8 Tri FPPR Bam Envs with K574R (HIV-1 AD8). The assay can be described thus: gp120 shedding from virus particles.

For the substance “gp120 (Q114E) of the HIV-1AD8 Tri Bam, Tri FPPR Bam and Tri FPPR Bam-K574R Envs (natural protein)”, the fold reduction of gp120 shedding against the Tri FPPR Bam Env turned out to be 3.9 fold.

“gp120 (Q114E/K59A) of the HIV-1AD8 Tri FPPR Bam-K59A and Tri FPPR Bam-K59A/K574R Envs (natural protein)”: the fold resistance to gp120 shedding (CD4mc+cold) against the Tri Bam Env worked out at 40 times.

The values are drawn from paper PMC11228805.
